According to article PMC2667941:
Where two headings read alike, the source gives them in different places.

B1: ps-po-X on CdTe (same sequence as ps-po) (ssDNA)
DNA: TCCGCTGCAGAAAAATCGGGCGTAC
modifications: 9 phosphorothioate linkages, between the last 10 nt (T*C*G*G*G*C*G*T*A*C); rest phosphodiester
B2: ps-po-TBA on CdTe (structured_DNA)
DNA: GGTTGGTGTGGTTGGAAAAATCGGGCGTAC
modifications: 9 phosphorothioate linkages, between the last 10 nt (T*C*G*G*G*C*G*T*A*C); rest phosphodiester

Columns and labels:
human alpha-thrombin [1] = molecular target: T1, human alpha-thrombin (Homo sapiens, UniProt P00734;P00734 328-363;364-622); test: gel filtration chromatography
human alpha-thrombin [2] = molecular target: T1, human alpha-thrombin; test: gel filtration chromatography; remark: listed apart in the source

Binder	binding result (human alpha-thrombin [1])	binding result (human alpha-thrombin [2])
B1	no binding	
B2		binds
